# Literature values, collected in patent publication US20020192216A1, “Therapeutic use” (priority 1999, published 2002).
# B1: HIP: membrane glycoprotein that binds Hedgehog proteins and attenuates Hedgehog signalling; GenBank AF116865 (protein, UniProt Q7TN16 18-700, looked up)
# Hedgehog-interacting protein: FFEGDAKFGERNEGSGARRRRCLNGNPPKRLKRRDRRVMSQLELLSGGEILCGGFYPRVSCCLQSDSPGLGRLENKIFSATNNSECSRLLEEIQCAPCSPHSQSLFYTPERDVLDGDLALPLLCKDYCKEFFYTCRGHIPGLLQTTADEFCFYYARKDAGLCFPDFPRKQVRGPASNYLGQMEDYEKVGGISRKHKHNCLCVQEVMSGLRQPVSAVHSGDGSHRLFILEKEGYVKILTPEGELFKEPYLDIHKLVQSGIKGGDERGLLSLAFHPNYKKNGKLYVSYTTNQERWAIGPHDHILRVVEYTVSRKNPHQVDVRTARVFLEVAELHRKHLGGQLLFGPDGFLYIILGDGMITLDDMEEMDGLSDFTGSVLRLDVDTDMCNVPYSIPRSNPHFNSTNQPPEVFAHGLHDPGRCAVDRHPTDININLTILCSDSNGKNRSSARILQIIKGRDYESEPSLLEFKPFSNGPLVGGFVYRGCQSERLYGSYVFGDRNGNFLTLQQSPVTKQWQEKPLCLGASSSCRGYFSGHILGFGEDELGEVYILSSSKSMTQTHNGKLYKIVDPKRPLMPEECRVTVQPAQPLTSDCSRLCRNGYYTPTGKCCCSPGWEGDFCRIAKCEPACRHGGVCVRPNKCLCKKGYLGPQCEQVDRNVRRVTRAGILDQIIDMTSYLLDLTSYIV
# Test system: all three mammalian Hedgehog proteins
# Conditions: compared with Ptc
molecule,measurement,value
B1,affinity for Hedgehog proteins,comparable to that of Ptc
